# Experimental data taken from publication PMC8533110, “Feeling the Heat: The Campylobacter jejuni HrcA Transcriptional Repressor Is an Intrinsic Protein Thermosensor” (Biomolecules, 2021).
# T1: GST-HrcA fusion protein (C. jejuni NCTC11168 HrcA repressor fused to glutathione S-transferase) (C. jejuni NCTC 11168, UniProt Q9PPG2 1-264)
# T1 construct: HrcA heat-shock transcriptional repressor of Campylobacter jejuni NCTC 11168; also called heat-shock repressor HrcA
# T1 sequence (looked up): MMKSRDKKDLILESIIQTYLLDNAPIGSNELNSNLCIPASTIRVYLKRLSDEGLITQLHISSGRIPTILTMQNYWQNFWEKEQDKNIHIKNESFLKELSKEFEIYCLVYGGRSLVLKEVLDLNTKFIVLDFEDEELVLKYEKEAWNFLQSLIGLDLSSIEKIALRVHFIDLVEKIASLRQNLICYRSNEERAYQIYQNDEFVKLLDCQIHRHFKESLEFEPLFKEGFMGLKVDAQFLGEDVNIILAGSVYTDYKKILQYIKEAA
# B1: GroEL chaperonin of C. jejuni (natural protein, UniProt O69289 1-545, looked up)
# chain: MAKEIIFSDEARNKLYEGVKKLNDAVKVTMGPRGRNVLIQKSFGAPSITKDGVSVAKEVELKDSLENMGASLVREVASKTADQAGDGTTTATVLAHAIFKEGLRNITAGANPIEVKRGMDKACEAIVAELKKLSREVKDKKEIAQVATISANSDEKIGNLIADAMEKVGKDGVITVEEAKSINDELNVVEGMQFDRGYLSPYFITNAEKMTVELSSPYILLFDKKITNLKDLLPVLEQIQKTGKPLLIIAEDIEGEALATLVVNKLRGVLNISAVKAPGFGDRRKAMLEDIAILTGGEVISEELGRTLESATIQDLGQASSVIIDKDNTTIVNGAGEKANIDARVNQIKAQIAETTSDYDREKLQERLAKLSGGVAVIKVGAATETEMKEKKDRVDDALSATKAAVEEGIVIGGGAALIKAKAKIKLDLQGDEAIGAAIVERALRAPLRQIAENAGFDAGVVVNSVENAKDENTGFDAAKGEYVNMLESGIIDPVKVERVALLNAVSVASMLLTTEATISEIKEDKPTMPDMSGMGGMGGMGGMM
# notes: GroEL (60 kDa chaperonin) of Campylobacter jejuni NCTC 11168, endogenous protein detected by anti-GroEL immunoblot; Only GroEL was detected in the pull-down; also called GroE chaperonin; source: endogenous, cytoplasmic protein extract of C. jejuni NCTC11168 wild type
# Biological target: T1, GST-HrcA fusion protein (C. jejuni …)
# Experiment: pull-down; GST-HrcA on glutathione-agarose as bait, incubated 16 h at 4 °C with pre-cleared C. jejuni NCTC11168 cytoplasmic extract in Res buffer (10 mM Tris-HCl pH 7.5, 100 mM NaCl, 20 mM KCl, 1 mM EDTA, 0.01% NP-40); GroEL detected by anti-GroEL immunoblot; GST alone as control bait
# Settings: one partner purified
binder,measurement,value
B1,fold intensity of the GroEL band against the GST control pull-down,6.2 fold
